Laboratory results as given in US20100048709A1 (UNIVERSITY OF BRITISH COLUMBIA, published 2010).

Legend:
[1] = biological target: T1, recombinant rat thioredoxin-fused AR ligand binding domain (PanVera, 48.4 kDa), P15207
T1 chain: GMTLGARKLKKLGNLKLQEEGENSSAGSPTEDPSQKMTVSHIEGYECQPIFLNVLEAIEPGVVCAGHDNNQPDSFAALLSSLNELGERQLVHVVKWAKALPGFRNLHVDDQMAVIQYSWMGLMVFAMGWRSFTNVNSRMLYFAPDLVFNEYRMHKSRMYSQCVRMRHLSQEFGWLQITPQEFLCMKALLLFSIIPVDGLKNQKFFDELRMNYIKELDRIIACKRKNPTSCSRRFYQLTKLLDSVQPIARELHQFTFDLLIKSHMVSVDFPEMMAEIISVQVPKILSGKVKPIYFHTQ

[2] = biological target: T2, recombinant rat thioredoxin-fused AR ligand binding domain (PanVera, 48.4 kDa) (rat, UniProt P15207 606-902); test: cell-based or functional assay
T2 sequence (looked up): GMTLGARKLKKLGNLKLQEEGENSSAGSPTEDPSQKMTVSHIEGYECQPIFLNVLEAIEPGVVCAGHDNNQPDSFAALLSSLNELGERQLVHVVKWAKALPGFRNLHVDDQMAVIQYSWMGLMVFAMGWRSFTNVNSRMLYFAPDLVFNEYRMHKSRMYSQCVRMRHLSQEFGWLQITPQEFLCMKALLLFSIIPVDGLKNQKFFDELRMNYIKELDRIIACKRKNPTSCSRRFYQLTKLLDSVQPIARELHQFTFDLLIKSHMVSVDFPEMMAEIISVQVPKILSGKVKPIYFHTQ

B1: purified His-tagged-DDC protein (6x-His N-terminal fusion of dopa decarboxylase) (enzyme, human, UniProt P20711 2-480, looked up, not shown: small tags and cut ends)
chain: NASEFRRRGKEMVDYMANYMEGIEGRQVYPDVEPGYLRPLIPAAAPQEPDTFEDIINDVEKIIMPGVTHWHSPYFFAYFPTASSYPAMLADMLCGAIGCIGFSWAASPACTELETVMMDWLGKMLELPKAFLNEKAGEGGGVIQGSASEATLVALLAARTKVIHRLQAASPELTQAAIMEKLVAYSSDQAHSSVERAGLIGGVKLKAIPSDGNFAMRASALQEALERDKAAGLIPFFMVATLGTTTCCSFDNLLEVGPICNKEDIWLHVDAAYAGSAFICPEFRHLLNGVEFADSFNFNPHKWLLVNFDCSAMWVKKRTDLTGAFRLDPTYLKHSHQDSGLITDYRHWQIPLGRRFRSLKMWFVFRMYGVKGLQAYIRKHVQLSHEFESLVRQDPRFEICVEVILGLVCFRLKGSNKVNEALLQRINSAKKIHLVPCHLRDKFVLRFAICSRTVESAHVQRAWEHIKELAADVLRAERE
Which “R1881 concentration required to 50% saturate total AR-LBD protein” value [1] does the source give for B1 here?
The value was “in the absence of His-DDC, an R1881 concentration of 883 nM was required to 50% saturate total AR-LBD protein, while in the presence of His-DDC a lower androgen amount of 425 nM was necessary”.

And the “apparent affinity for androgen (R1881) by the AR-LBD, hydroxylapatite pulldown ligand binding assay” value [2]?
Its value is 2.1 fold.

And the “increase in bound R1881 at 100 nM R1881” value [2]?
The value was 1.75 fold.

What about the “increase in bound R1881 at 1000 nM R1881” value [2] of the same binder?
Its value is 1.71 fold.
